Test [1] has as its target T1, 017-mut3 peptide (…)/HLA-A*02:01 complex on T2 cells (human).
T1 construct: Alanine mutant at position 3
As to the kind of experiment: flow cytometry, phage on peptide-loaded T2 cells.

The target of test [2] is T2, 017-mut1 peptide (…)/HLA-A*02:01 complex on T2 cells (human).
T2 construct: Alanine mutant of Foxp3-7 at position 1, pulsed onto T2 cells; also called EXT017-mut1
As to the kind of experiment: flow cytometry, phage on peptide-loaded T2 cells.

Test [3] addresses T3, 017-mut8 peptide (…)/HLA-A*02:01 complex on T2 cells (human).
T3 construct: Alanine mutant at position 8; also called TLI-A8
As to the kind of experiment: flow cytometry, phage on peptide-loaded T2 cells.

Test [4] has as its target T4, 017-mut4 peptide (…)/HLA-A*02:01 complex on T2 cells (human).
T4 construct: Alanine mutant at position 4
The test can be described thus: flow cytometry, phage on peptide-loaded T2 cells.

The target in test [5] is T5, Foxp3-7 peptide/HLA-A*02:01 complex on the cell surface (human).
T5 construct: also called Foxp3-7/HLA-A2 complex
As to the kind of experiment: flow cytometry, phage on peptide-loaded T2 cells.

Test [6] has as its target T6, 017-mut7 peptide (…)/HLA-A*02:01 complex on T2 cells (human).
T6 construct: Alanine mutant at position 7
As to the kind of experiment: flow cytometry, phage on peptide-loaded T2 cells.

For test [7], the target named is T7, 017-mut2 peptide (…)/HLA-A*02:01 complex on T2 cells (human).
T7 construct: Alanine mutant at position 2, the anchor position; the peptide may load poorly onto HLA-A2; also called EXT017-mut2
The test can be described thus: flow cytometry, phage on peptide-loaded T2 cells.

Test [8] concerns the target T8, 017-mut5 peptide (…)/HLA-A*02:01 complex on T2 cells (human).
T8 construct: Alanine mutant at position 5
The test can be described thus: flow cytometry, phage on peptide-loaded T2 cells.

Test [9] concerns the target T9, 017-mut9 peptide (…)/HLA-A*02:01 complex on T2 cells (human).
T9 construct: Alanine mutant at position 9
As to the kind of experiment: flow cytometry, phage on peptide-loaded T2 cells.

Test [10] has as its target T10, HLA-A*02:01 on T2 cells alone (no peptide added) (human).
T10 construct: TAP-deficient T2 cells without pulsed peptide; negative control target, and the HLA molecule whose stabilisation by peptides is read in the T2 stabilization assay; also called HLA-A*02 molecule; HLA-A2 molecule
As to the kind of experiment: flow cytometry, phage on T2 without peptide; secondary only 121, unstained 106.

The target in test [11] is T5, Foxp3-7 peptide/HLA-A*02:01 complex on …. The test can be described thus: flow cytometry, phage on T2 + Foxp3-7 peptide; secondary only 104, unstained 81.7.
Test [12] deals with T11, T2+EW (Homo sapiens, UniProt A*02:01).
T11 construct: on the surface of T2 cells; irrelevant control peptide; also called EW peptide/HLA-A*02:01 complex on T2 cells; T2 pulsed with EW peptide
The test can be described thus: flow cytometry, phage on T2 + EW peptide; secondary only 310, unstained 93.

In test [13] the target is T12, R3 (RHAMM-R3) peptide/HLA-A*02:01 complex on T2 cells (human).
T12 construct: Control target of the phage staining of T2 cells; also called T2 cells pulsed with R3 peptide; RHAMM 3 (R3)
The test can be described thus: flow cytometry, phage on T2 + R3 peptide; secondary only 123, unstained 99.8.

Test [14] addresses T5, Foxp3-7 peptide/HLA-A*02:01 complex on …. The test can be described thus: flow cytometry, phage on T2 + Foxp3-7 peptide; secondary only 318, unstained 95.8.
For test [15], the target named is T10, HLA-A*02:01 on T2 cells alone (no …). The test can be described thus: flow cytometry, phage on T2 without peptide; secondary only 320, unstained 91.4.
For test [16], the target named is T12, R3 (RHAMM-R3) peptide/HLA-A*02:01 …. The test can be described thus: flow cytometry, phage on T2 + R3 peptide (as the table names the samples); secondary only 109, unstained 80.9.
Test [17] concerns the target T5, Foxp3-7 peptide/HLA-A*02:01 complex on …. As to the kind of experiment: flow cytometry, phage on T2 + Foxp3-7 peptide; secondary only 116, unstained 93.8.
The target of test [18] is T10, HLA-A*02:01 on T2 cells alone (no …). The test can be described thus: flow cytometry, phage on T2 cells.
Test [19] has the same target. The test can be described thus: flow cytometry, phage on T2 cells, no peptide.
The target of test [20] is T11, T2+EW. The test can be described thus: flow cytometry, phage on T2 + EW peptide; secondary only 113, unstained 94.7.
In test [21] the target is T5, Foxp3-7 peptide/HLA-A*02:01 complex on …. The test can be described thus: flow cytometry, phage on T2 + Foxp3-7 peptide; secondary only 133, unstained 103.
Test [22] deals with T10, HLA-A*02:01 on T2 cells alone (no …). As to the kind of experiment: flow cytometry, phage on T2 without peptide; secondary only 100, unstained 99.5.
The target is the same in test [23]. The test can be described thus: flow cytometry, phage on T2 without peptide.
For test [24] the target is unchanged. The test can be described thus: flow cytometry, phage on T2 without peptide. The source holds these as a separate data set.

B1: EXT017-27 scFv phage clone (scFv)
scFv: QAVLTQPPSVSVAPGKTARLTCGGNNIGSESVHWYQQKPGQAPLLVVYDDDDRPSGIPERFSGSNSGNTATLTISRVEAGDEADYYCQVWDRSSDHWFFGGGTKLTVLGSRGGGGSGGGGSGGGGSLEMAQVQLVQSGAEVKKPGASVKVSCKASGYTFTNYYIHWVRQAPGQGLEWMGIIRPSGGITNYAQKFQGRVSMTRDTSTSTVYMELSSLRSEDTAVYYCARSWDYFASNDFWGQGTLVTVSSTSGQAGQHHHHHHGAYPYDVPDYAS
notes: full-length scFv with His+HA tags; also called EXT017-27 phage; phage clone #27
As to B1, the MFI in test [1] was 2260; in test [2], 222; in [3] it was 6400; in [4], 99; in [5], 21200; in [6] it was 96.3. For the same molecule, the MFI was found to be 98.2 in test [7], 95.4 in test [8], 131 in [9] and 90.4 in test [19]. Moreover, the “Median:FITC-A” value in [10] was 150; in [11], 2820; with T2+EW [12], 371; in test [13], 145; in test [14] it was 1940; in test [15], 355. Moreover, the “Median:FITC-A” value turned out to be 123 in [16] and 658 in test [17]. Also, the binding result in test [18] is reported as “no binding”.

B2: EXT017-17 scFv phage clone (scFv)
scFv: QSVLTQPPSVSGAPGQRVTISCTGSSSNIGAGYDVHWYQQLPGTAPKLLIYGNSNRPSGVPDRFSGSKSGTSASLAITGLQAEDEADYYCQSYDSSLSGYVFGTGTKVTVLGSRGGGGSGGGGSGGGGSLEMAEVQLVQSGAEVKKPGSSVKVSCKASGDTFSRYAISWVRQAPGQGLEWMGRIIPIFGTPNYAQKFQGRVTITADEFTSTAYMELSSLRSEDTAMYYCARSIYRYSEYDHWGQGTLVTVSSTSGQAGQHHHHHHGAYPYDVPDYAS
notes: fusion to the phage coat protein not described; also called EXT017-17 phage; phage clone #17
Regarding B2, the MFI in test [1] stood at 741; in [2], 7880; in [3] it was 3590; in [4] it was 103; in [5], 23600; in test [6] it was 97.8. Further, the MFI in [7] came to 99.8; in test [8], 98.1; in [9], 94.7; in test [19] it was 92.9. The “Median:FITC-A” value worked out at 143 in [10]; 144 in the test with T2+EW [20]; 2590 in test [11]; 146 in test [13]; 1760 in test [21]; 151 in test [22]. Also, the “Median:FITC-A” value in [16] is 124; in test [17], 745. Besides, the binding result in test [18] is reported as “no binding”.

B3: EXT017-53 scFv phage clone (scFv)
scFv: NFMLTQPHSVSESPGKTVTISCTRSSGSIASHYVQWYQQRPGSSPTTVIYENNQRPSGVPDRFSGSIDSSSNSASLTISGLKTEDEADYYCQSYDRSNHVVFGGGTKLTVLGSRGGGGSGGGGSGGGGSLEMAQVQLVQSGAEVKKPGASVKVSCKASGYTFTNYYIHWVRQAPGEGLEWMGIIRPSGGNTNYAQKFQGRVTMTRDTSTRTVYMELSSLRSEDTAVYYCARSWNSRDVDSWGQGTLVTVSSTSGQAGQHHHHHHGAYPYDVPDYAS
notes: full-length scFv with His+HA tags; also called EXT017-53 phage
B3: the MFI in test [1] is 5780; in test [2], 1100; in test [3], 12100; in test [4] it was 95.8; in [5], 25800; in test [6] it was 98.9. In addition, the MFI is 95.3 in test [7], 98.5 in test [8], 149 in test [9] and 89.5 in [19]. Moreover, the “Median:FITC-A” value was found to be 2700 in [11]; 346 with T2+EW [12]; 1050 in [14]; 355 in test [15]; 121 in test [16]. Also, the binding result in test [23] is given as “no binding”.

B4: Clone #23 (scFv)
scFv (VL-linker-VH-His/HA tag): SYELTQPPSVSVAPGQTAWITCGGNNIGSKSVHWYQQKPGQAPILVVYDDSDRPSGIPERVSGSNSGNTATLTISRVEAGDEADYYCQVWDSSSDRWVFGGGTKLTVLGSRGGGGSGGGGSGGGGSLEMAQMQLVQSGAEVKKPGASVKVSCKASGYTFTNYGISWVRQAPGQGLEWMGWISPYNGNTNYAQKLQGRVTMTTDTSTSTAYMELRNLRSDDTAVYYCARYWDSGYAYDEWGQGTLVTVSSTSGQAGQHHHHHHGAYPYDVPDYAS
notes: also called EXT017-23; EXT017-23 scFv phage clone
On to B4, for which the “Median:FITC-A” value is 144 in the test with T2+EW [20], 982 in test [21] and 141 in test [22]. The binding result in [24] is “no binding”.

B5: Clone #24 (scFv)
scFv (VL-linker-VH-His/HA tag): QAVLTQPPSVSAAPGQKVTISCSGSSSNIGNNYVSWYQQLPGTAPKLLIYDNNKRPSGLPDRFSGSKSGTSATLGITGLQTGDEADYYCGTWDSSLNAVVFGGGTQLTVLSSRGGGGSGGGGSGGGGSLEMAQVQLVQSGAEVKKPGASVKVSCKASGYTFTNYYIHWVRQAPGQGLEWMGIIRPSGGITNYAQKFQGRVTMTRDTSTSTVYMELSSLRSEDTAVYYCARSWSNKLSWYNDGWGQGTLVTVSSTSGQAGQHHHHHHGAYPYDVPDYAS
notes: also called EXT017-24; EXT017-24 scFv phage clone
Regarding B5, the “Median:FITC-A” value with T2+EW [20] came to 141; in test [21] it was 1040; in test [22], 146. In test [24], the binding result is “no binding”.

B6: EXT017-28 scFv phage clone (scFv)
scFv: QSVLTQPPSVSGAPGQRVTISCTGSSSNIGAGYDVHWYQQLPGTAPKLLIYGNSDRPSGVPDRFSGSKSGTSASLAITGLQAEDEADYYCQSYDSSLSGYVFGTGTKVTVLGSRGGGGSGGGGSGGGGSLEMAQMQLVQSGAEVKKPGSSVKVSCKASGGTFSTYAISWVRQAPGQGLEWMGGIIPIFGTANYAQKFQGRVTITADKSTSTAYMEVRNLRSEDTAVYYCARAEYVYGEYDQWGQGTLVTVSSTSGQAGQHHHHHHGAYPYDVPDYAS
notes: full-length scFv with His+HA tags; also called EXT017-28 phage; phage clone #28
As to B6, the MFI in test [1] came out at 13400; in test [2] it was 20100; in test [3], 27500; in [4], 108; in test [5], 39500; in [6], 96.4. Further, the MFI is 102 in [7], 107 in [8], 5890 in test [9] and 93.9 in test [19]. Also, the “Median:FITC-A” value in test [10] was found to be 144; in test [11] it was 2790; with T2+EW [12], 338; in test [13] it was 140; in [14], 1740; in test [15], 353. The “Median:FITC-A” value is 118 in [16] and 873 in test [17]. The binding result in [18] is “no binding”.
